Results as given in patent publication US20240270793A1, “COMPOSITIONS” (UNIVERSITY OF SOUTHAMPTON, priority 2020, published 2024).
Square brackets hold non-standard residues; d marks the D form. Peptide text beside a SMILES is read from it. Phe(4-I) = N[C@@H](Cc1ccc(I)cc1)C(=O)O

Experiments:
[1] = system: HIF-2α/1α:HIF-1β RTHS; assay: RTHS secondary screening, drop-spotting regrowth assay; format: cell-based; conditions: SICLOPPS-expressed peptide, control CAAAAA
Description: A screen for cyclic peptide inhibitors of HIF-2 dimerization was performed using SICLOPPS with a HIF-2 RTHS, using a method described previously.^8,9 (FIG. 1a). A secondary screen was then also conducted on the HIF-1 RTHS to compare selectivity, after which the hits found to inhibit both HIF-2 and HIF-1 were chosen for further review (FIG. 1b). SICLOPPS plasmids that produced a growth advantage in both systems were further screened in an unrelated p6/UEV RTHS to eliminate false positives (FIG. 1b).
It was expected that the similarity between these peptides would translate to a common structure-affinity relationship trend between the three, and that any differences in affinity could be used to inform optimisation efforts. In addition, all three peptides contained a basic side chain (arginine or lysine), which are protonated under physiological conditions, and would therefore aid solubility and potentially provide a useful polar interaction with the proteins themselves. […] The splicing efficiency of peptides from the Ssp intein may vary slightly depending on their sequence, thus resulting in different concentrations of peptide in the cell, which may therefore bias the extent of regrowth response.^10 It was therefore decided that to fully validate these hits, that the binding activity was to be assessed under in vitro assay conditions. […]

[2] = biological target: T1, HIF-1α PAS-B (238-349) (Homo sapiens, UniProt Q16665); assay: MST binding to recombinantly expressed HIF-1α PAS-B domain
T1 construct: human HIF-1α PAS-B (238-349); His tag; made in house; host or cells: E. coli BL21(DE3)-Rosetta, pET28a
Description: Genes encoding for human HIF-1α PAS-B (238-349) and HIF-2α PAS-B (240-350) were each cloned into pET28a vectors at the BamHI and SacI restriction sites. The recombinant plasmids were next transformed into BL21(DE3)-Rosetta chemically competent cells. Cells were grown in LB media at 37° C. to an OD600 of 0.7, after which expression was induced by addition of 0.5 mM IPTG. Following overnight expression at 16° C., cells were pelleted and resuspended in buffer containing 50 mM Tris, 150 mM NaCl, 5% glycerol, 1 mM TCEP, protease inhibitors (Roche) and 20 mM imidazole, pH 8.0. Cells were lysed by sonication, and the supernatant applied to a 1 mL Histrap FF affinity column. The His-tagged protein of interest was eluted with buffer containing 50 mM Tris, 150 mM NaCl, 5% glycerol, 1 mM TCEP and 250 mM imidazole. The protein was then loaded onto a HiLoad 16/600 superdex 75 pg size exclusion column (GE healthcare) equilibrated with assay buffer containing 50 mM Tris, 150 mM NaCl, 5% glycerol and 1 mM TCEP, pH 8.0. Fractions containing the desired protein were flash-frozen and stored at −80° C. prior to use.
(§1) HIF-α proteins were labelled with Monolith NT-647 labelling dye (Nanotemper Technologies GmbH) according to the manufacturer's instructions. MST experiments were performed on a Monolith NT.115 system (Nanotemper Technologies GmbH), in assay buffer containing 50 nM labelled protein, 10% DMSO and 0.05% TWEEN-20. MST measurements were performed using 50% LED and 50% MST power.

[3] = system: 1α PAS-B mutants C255A, C334A or C337A; assay: MST binding to 1α PAS-B cysteine mutants; set-up: species or system human; conditions: mutations C255A
From the text: The potency imparted by the thiol motif raised the possibility of the interaction being disulfide-mediated. To counter this, all assays thus far had been performed with excess reducing agent tris(2-carboxyethyl)phosphine (TCEP) present in the buffers. Nonetheless the possibility was still considered due to the importance of the thiol moiety. As the HIF-α PAS-B domain contains multiple cysteines in internal cavities there remained the potential for disulfide bond formation within a solvent and TCEP-inaccessible region of the protein-peptide complex. Three 1α PAS-B mutants were therefore prepared with mutations C255A, C334A or C337A and the activity of the peptide CRLIIF [SEQ ID NO: 6, cyclic peptide #4] again tested by MST. It was anticipated that if a disulfide bond were to form with any of these then there would be a significant loss of binding for the peptide with the corresponding mutant.
as §1

[4] = cited from earlier work
[5] = biological target: T2, human HIF-1α PAS-B (238-349), recombinant, His-tagged (human, UniProt Q16665 238-349, labelled with Monolith NT-647 dye for MST); assay: MST, NT-647-labelled recombinant HIF-1α PAS-B
T2 construct: range 238-349; Expressed in E. coli BL21(DE3)-Rosetta from pET28a; also called HIF-1α PAS-B domain; PAS-B domain of HIF-1α; not shown: His tag from pET28a vector (BamHI/SacI cloning)
Description: as §1

[6] = biological target: T3, human HIF-2α PAS-B (240-350), recombinant, His-tagged (human, UniProt Q99814 240-350, labelled with Monolith NT-647 dye for MST); assay: MST, NT-647-labelled recombinant HIF-2α PAS-B
T3 construct: range 240-350; Expressed in E. coli BL21(DE3)-Rosetta from pET28a; also called PAS-B domain of HIF-2α; not shown: His tag from pET28a vector (BamHI/SacI cloning)
Description: as §1

[7] = biological target: T3, human HIF-2α PAS-B (240-350), …; assay: MST, HIF-2α PAS-B against HIF-1α PAS-B
Description: as §1

[8] = biological target: HIF (hypoxia inducible factor) in the YFP-reporter T-REx-293 (HEK) cell line; assay: cell-based or functional assay
[9] = biological target: T2, human HIF-1α PAS-B (238-349), …; assay: MST, HIF-1α PAS-B; bar chart of Kd (µM) for residues at position 6 of CRLIIF
[10] = biological target: T2, human HIF-1α PAS-B (238-349), …; assay: MST, NT-647-labelled recombinant 1α PAS-B
Description: as §1

[11] = biological target: T2, human HIF-1α PAS-B (238-349), …; assay: MST, peptide titrated against labelled HIF-1α PAS-B [middle panel]
[12] = biological target: T3, human HIF-2α PAS-B (240-350), …; assay: MST, peptide titrated against labelled HIF-2α PAS-B [middle panel]
[13] = biological target: T3, human HIF-2α PAS-B (240-350), …; assay: MST, NT-647-labelled recombinant PAS-B domain
Description: as §1

[14] = biological target: T2, human HIF-1α PAS-B (238-349), …; assay: MST, NT-647-labelled recombinant PAS-B domain
Description: as §1

[15] = biological target: T2, human HIF-1α PAS-B (238-349), …; assay: MST, ratio of Kd on HIF-2α PAS-B to Kd on HIF-1α PAS-B
[16] = biological target: T2, human HIF-1α PAS-B (238-349), …; assay: MST, peptide titrated against labelled HIF-1α PAS-B [bottom panel]
[17] = biological target: T3, human HIF-2α PAS-B (240-350), …; assay: MST, peptide titrated against labelled HIF-2α PAS-B [bottom panel]
[18] = biological target: T3, human HIF-2α PAS-B (240-350), …; assay: MST, peptide titrated against labelled HIF-2α PAS-B [top panel]
[19] = biological target: T2, human HIF-1α PAS-B (238-349), …; assay: MST, peptide titrated against labelled HIF-1α PAS-B [top panel]

T2 sequence (Q16665 238-349): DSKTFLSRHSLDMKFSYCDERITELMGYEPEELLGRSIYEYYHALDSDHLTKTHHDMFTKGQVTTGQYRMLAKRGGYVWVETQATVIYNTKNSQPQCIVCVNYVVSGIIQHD
T3 sequence (Q99814 240-350): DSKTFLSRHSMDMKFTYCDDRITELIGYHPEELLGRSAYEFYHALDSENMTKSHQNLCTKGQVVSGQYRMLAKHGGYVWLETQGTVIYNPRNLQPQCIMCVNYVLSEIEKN
T1 sequence (Q16665 238-349): as the sequence (Q16665 238-349) above

Which results are given for CC[C@H](C)[C@@H]1NC(=O)[C@H](C(C)C)NC(=O)[C@H](CCCNC(=N)N)NC(=O)[C@H](CS)NC(=O)[C@H](Cc2ccccc2)NC(=O)[C@H]([C@@H](C)CC)NC1=O [Cyclic peptide #3, cyclo-cys arg val ile ile phe] (cyclo(CRVIIF))?
regrowth response in drop-spotting assay [1]: greatest regrowth response; selectivity for 1α over 2α ([2]; MST affinities, 1α vs 2α PAS-B): 2 fold

With CC[C@H](C)[C@@H]1NC(=O)[C@H](CC(C)C)NC(=O)[C@H](CCCNC(=N)N)NC(=O)[C@H](CS)NC(=O)[C@H](Cc2ccccc2)NC(=O)[C@H]([C@@H](C)CC)NC1=O [Cyclic peptide #4, cyclo-cys agr leu ile ile phe] (cyclo(CRLIIF)) as the molecule, how does the “greater affinity than CKLLIF” value ([2]; MST against 1α PAS-B) read?
The value was “about 3 fold”.

And the “affinity for 1α PAS-B mutants compared to wild-type protein” value [3]?
Its value is “identical to that of the wild-type protein”.

For “CLLFVY: previously reported selective inhibitor of HIF-1 dimerization, cyclic peptide Cys leu leu phe val tyr”, which “solubility of previously reported HIF-1 inhibitor” value [4] is on record?
Its value is “comparatively insoluble”.

B1: cyclo-cys arg leu ile ile (4-I)phe (peptide)
peptide: cyclo(CRLII[Phe(4-I)])
SMILES: CC[C@H](C)[C@@H]1NC(=O)[C@H](CC(C)C)NC(=O)[C@H](CCCNC(=N)N)NC(=O)[C@H](CS)NC(=O)[C@H](Cc2ccc(I)cc2)NC(=O)[C@H]([C@@H](C)CC)NC1=O
notes: also called CRLIIF(4I); Cyclo-CRLIIF(4-I)
Which Kd [5] does the source give for B1 here?
The Kd was 0.85 µM.

And the “fold improvement in affinity relative to the parent compound CRLIIF” value [5]?
The value was 4.5 fold.

And the Kd [6]?
The Kd was 1.9 µM.

What about the “fold loss in Kd compared to the 1α isoform” value [7] of the same molecule?
Its value is 2.2 fold.

What about the IC50 in the YFP reporter assay (HRE-driven YFP in T-REx-293 cells, hypoxia) [8] of the same molecule?
Its IC50 in the YFP reporter assay (HRE-driven YFP in T-REx-293 cells, hypoxia) is 35 µM.

B2: cyclo-cys arg leu ile ile tyr (peptide)
peptide: CRLIIY
modifications: head-to-tail cyclic (cyclo-)
notes: also called Cyclo-CRLIIY; cyclic peptide #29
Does B2 bind [9]?
Result: binds

What does the source list for CRLLIF (head-to-tail cyclic (cyclo-), also called CRLLIF; cyclic peptide #2) [cyclo-cys arg leu leu ile phe]?
Kd [10]: 14 µM; Kd [11]: 14.5 µM; Kd [12]: 10.2 µM

Which results are given for CRVIIF (head-to-tail cyclic (cyclo-), also called CRVIIF; cyclic peptide #3) [cyclo-cys arg val ile ile phe]?
Kd [13]: 118 µM; Kd [14]: 61 µM; fold selectivity for 1α over 2α [15]: ~2 fold; Kd [16]: 65.5 µM; Kd [17]: 123 µM

What does the source list for CKLIIF (head-to-tail cyclic (cyclo-), also called CKLIIF; cyclic peptide #1) [cyclo-cys lys leu ile ile phe]?
Kd [13]: ~2 µM; Kd [14]: ~2 µM; Kd [10]: 2.5 µM; Kd [18]: 2.2 µM; Kd [19]: 2.6 µM
